Measured values taken from patent US20260098089A1 (KYMAB, published 2026).
Blank lines part the entries; values can stand above or below the binder they belong to.

Tests used:
[1] = molecular target: T1, Cynomolgus monkey (Macaca fascicularis) CD7 protein (soluble) (cynomolgus monkey (Macaca fascicularis)); experiment: SPR, mAb captured, single concentration of cynomolgus CD7 protein as analyte
T1 construct: also called Cynomolgus CD7; cynomolgus antigen
T1 chain: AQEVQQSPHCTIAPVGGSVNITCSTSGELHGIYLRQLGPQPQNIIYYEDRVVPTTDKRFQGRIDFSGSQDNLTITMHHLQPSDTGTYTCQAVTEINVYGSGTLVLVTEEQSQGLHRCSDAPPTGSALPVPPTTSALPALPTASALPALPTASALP

[2] = molecular target: T2, Human CD7 on cells (CEM and other T-ALL cells, peripheral NK and T cells) (human, UniProt P09564 26-238); experiment: cell-based or functional assay
T2 sequence: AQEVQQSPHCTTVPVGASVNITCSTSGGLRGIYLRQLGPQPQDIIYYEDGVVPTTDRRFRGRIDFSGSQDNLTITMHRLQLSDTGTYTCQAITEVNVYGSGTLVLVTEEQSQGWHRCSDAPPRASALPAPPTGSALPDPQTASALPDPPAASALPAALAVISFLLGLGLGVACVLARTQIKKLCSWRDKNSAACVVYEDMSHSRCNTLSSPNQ

[3] = molecular target: T1, Cynomolgus monkey (Macaca fascicularis) …; experiment: SPR, captured mAb, global fit 1:1 model
[4] = molecular target: T3, Human CD7 protein (soluble) (human, UniProt P09564 26-180); experiment: SPR, captured mAb, global fit 1:1 model
T3 construct: also called hCD7; human antigen
T3 sequence: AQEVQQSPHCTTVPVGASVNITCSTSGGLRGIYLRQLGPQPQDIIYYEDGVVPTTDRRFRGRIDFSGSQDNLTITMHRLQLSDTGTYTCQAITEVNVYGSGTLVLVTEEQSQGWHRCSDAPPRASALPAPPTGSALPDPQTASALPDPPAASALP

[5] = molecular target: T2, Human CD7 on cells (CEM and other T-ALL …); experiment: cell-based or functional assay; remark: listed apart in the source
[6] = molecular target: T1, Cynomolgus monkey (Macaca fascicularis) …; experiment: Affinity to soluble CD7 (biophysical summary; SPR)
[7] = molecular target: T3, Human CD7 protein (soluble); experiment: Affinity to soluble CD7 (biophysical summary; SPR)

- binding result [1]: no binding
- EC50, CDC assay on CEM cells [2]: 0.12 nM
B1: 1741E04 E345R (antibody, human IgG1, V domains shown)
VH: EVQLVESGGGLVKPGGSPRLSCAAYGVTFSNAWMSWVRQAPGKGLEWVGRIKSKTDGGTTDYAAPVKGRFTISRDDSKNTLYLQMNSLKTEDTAVYYCTIEAVAGHFDYWGQGTLVTVSS
VL: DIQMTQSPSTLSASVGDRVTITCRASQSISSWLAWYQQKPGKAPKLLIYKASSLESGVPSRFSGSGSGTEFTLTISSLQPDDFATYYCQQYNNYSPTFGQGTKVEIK
- Maximum killing, CDC assay on CEM cells [2]: 99.8%

- EC50, CDC assay on CEM cells [2]: 1.16 nM
B2: 1734F05 E345R (antibody, V domains shown)
VH: EVQLVESGGGLVQPGGSLRLSCAASGFTFSRYAMSWVRQAPGKGLEWVSSISASGATTFYADPVKGRFTISRDNSKKTLYLQMNSLRAEDTAVYYCAKDQDFDILTGYLNWFDPWGQGTLVTVSS
VL: EIVLTQSPATLSLSPGERVILSCRVSQSVSSYLAWYQQKPGQAPRLLIYDTSNRATGIPARFSGSGSGTDFTLTISSLEPEDFAVYYCQQRRNWPLTFGGGTKVEIK
- Maximum killing, CDC assay on CEM cells [2]: 100%

- Kd [3]: 3.9 nM
- koff [3]: 0.000642 s⁻¹
- kon [3]: 165000 M⁻¹ s⁻¹
- Kd [4]: 0.98 nM
- koff [4]: 0.000356 s⁻¹
- kon [4]: 369000 M⁻¹ s⁻¹
B3: 1734F05 (antibody, V domains shown)
VH: EVQLVESGGGLVQPGGSLRLSCAASGFTFSRYAMSWVRQAPGKGLEWVSSISASGATTFYADPVKGRFTISRDNSKKTLYLQMNSLRAEDTAVYYCAKDQDFDILTGYLNWFDPWGQGTLVTVSS
VL: EIVLTQSPATLSLSPGERVILSCRVSQSVSSYLAWYQQKPGQAPRLLIYDTSNRATGIPARFSGSGSGTDFTLTISSLEPEDFAVYYCQQRRNWPLTFGGGTKVEIK

- EC50, CDC assay on CEM cells [2]: 0.12 nM
B4: 1741G09 E345R (antibody, V domains shown)
VH: EVQLVESGGGLVKPGGSLRLSCAASGFSFSVAWMSWVRQAPGKGLEWVGRIKRKTDGGTTDYAAPVKGRFIISRDDSIKALYLQMNSLKTEDTAVYYCTTDPLLRYSDWLSHSLMGDVWGQGTTVTVSS
VL: DIQMTQSPSSLSASVGDRVAITCRTSQNINNYLNWYQQKPGKAPKPLIYAASSLQSGVPSRFSGSGSGTDFTLTISTLHPEDFATYYCQQTYSIPLTFGGGTKVEIK
- Maximum killing, CDC assay on CEM cells [2]: 99.5%

- CDC EC50; PDATLLAd2R, PDATALL12, PDTALL11 (intermediate to low CD7 expression) [5]: < 0.4 nM
- CDC EC50; PDTALL13, PDTALL18 (much low CD7 expression) [5]: < 0.6 nM
- CDC EC50; PDTALL46 and PDTALLAd2R [5]: ~0.35 nM
- CDC assay on isolated peripheral NK cells, EC50 [5]: ~0.3 nM
- Kd [6]: 0.15 nM
- Kd [7]: 4.75 nM
B5: 1741G09 HuIgG1 E430G C-term Lysine clipped, Phe variant of light chain (antibody, V domains shown)
VH: EVQLVESGGGLVKPGGSLRLSCAASGFSFSVAWMSWVRQAPGKGLEWVGRIKRKTDGGTTDYAAPVKGRFIISRDDSIKALYLQMNSLKTEDTAVYYCTTDPLLRYSDWLSHSLMGDVWGQGTTVTVSS
VL: DIQMTQSPSSLSASVGDRVAITCRTSQNINNYLNWYQQKPGKAPKPLIYAASSLQSGVPSRFSGSGSGTDFTLTISTLHPEDFATYYCQQTYSIPLTFGGGTKVEIKR
notes: also called 1741G09 E430G; G09 E430G

- Kd [3]: 0.145 nM
- kon [3]: 424000 M⁻¹ s⁻¹
- Kd [4]: 4.74 nM
- koff [4]: 0.00192 s⁻¹
- kon [4]: 416000 M⁻¹ s⁻¹
B6: 1741G09 (antibody, V domains shown)
VH: EVQLVESGGGLVKPGGSLRLSCAASGFSFSVAWMSWVRQAPGKGLEWVGRIKRKTDGGTTDYAAPVKGRFIISRDDSIKALYLQMNSLKTEDTAVYYCTTDPLLRYSDWLSHSLMGDVWGQGTTVTVSS
VL: DIQMTQSPSSLSASVGDRVAITCRTSQNINNYLNWYQQKPGKAPKPLIYAASSLQSGVPSRFSGSGSGTDFTLTISTLHPEDFATYYCQQTYSIPLTFGGGTKVEIK
notes: also called 1741G9

- EC50, CDC assay on CEM cells [2]: 0.00037 nM
B7: 1730C02 E345R (antibody, human IgG1, V domains shown)
VH: EVQLVESGGGLVQLGGSLRLSCAASGLTFNNYAMSWVRQAPGKGLEWVSTISGSGGSTYYADSAKGRFTISRDNSKNTLYLQMNSLRAEDTAVYYCAKGGLLYFGEFHFDYWGQGTLVTVSS
VL: DIQMTQSPSSLSASVGDRVTIICRASQGISNYLAWFQQKPGKAPKSLIYAASSLQSGVPSKFSGSGSGTDFTLTISSLQPEDFATYYCQHYNSYPLTFGGGTKVEIK
- Maximum killing, CDC assay on CEM cells [2]: 93.2%
